Positions count from the first letter of the chain named.
T1: human interleukin 13 receptor subunit alpha 2 (IL-13RA2) (human, UniProt Q14627 27-380)
T1 sequence (looked up): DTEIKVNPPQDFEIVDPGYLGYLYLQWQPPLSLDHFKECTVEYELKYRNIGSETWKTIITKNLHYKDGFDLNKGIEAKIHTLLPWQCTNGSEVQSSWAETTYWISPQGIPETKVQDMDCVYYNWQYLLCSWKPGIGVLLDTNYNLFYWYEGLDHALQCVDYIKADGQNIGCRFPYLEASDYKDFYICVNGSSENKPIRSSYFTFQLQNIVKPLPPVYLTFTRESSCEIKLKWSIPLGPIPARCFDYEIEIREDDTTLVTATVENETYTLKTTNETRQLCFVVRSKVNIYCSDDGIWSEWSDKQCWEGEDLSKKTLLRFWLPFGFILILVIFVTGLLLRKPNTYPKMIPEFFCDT

B1: xi62F6A8 hIgG1 (antibody, V domains shown)
VH: QVQIQQSGAELARPGASVMLSCKASGYTFTDYWMQWIKQRPGQGLEGIGAIYPGDGDTAYNQKFRGKATLTADKSSSTAYMQLNSLASEDSAVYFCARGATLLRPFPFWGQGTLVTVSA
VL: DIVMTQSHKFMSTSVGDRVSITCKASQDVSTAVAWYQQKPGQSPKLLIYSASYRYAGVPDRFTGSGSGTDFTFTISSVQAEDLAVYSCQQHYSIPPTFGGGTKLEIK
B2: xi24G6D5 hIgG1 (antibody, V domains shown)
VH: QVQLQQSGPELVKPGTSVKMSCKASGYTFTSNYIHWVKQRPGQGLEWIGWIYPGDGSIKYNEKFKGKTTLTADKSSSTVYMLLSSLTSEDSAIYFCAVLRRLDYWGQGTTLTVSS
VL: DIVLTQSPATLSVTPGDSVSLSCRASQSISNNLHWYQQKSHESPRLLIKYASQSISGIPSRFSGSGSGTDFTLSINSVETEDFGMYFCQQSNSWPLTFGAGTKLELK
B3: xi34A5G9 hIgG1 (antibody, V domains shown)
VH: EVHLQQSGPELVKPGASVKISCKTSGYTFTEYTMHWVKQSHGKSLEWIGRINPNNGIAEYKQTFKDKATLAVDKSSSTAYMEFRSLTSEDSAVYYCARGEGYGYWFAYWGQGTLVTVSA
VL: DIQMTQSPASLSASVGETVTITCRTSDNIYSYLAWYQQRQGKSPQLLVSNARTLAEGVPSRFSGSGSGTQFSLKINSLQPEDFGIYYCQHHSGTPFTFGSGTNLEIE
B4: xi51G2B3 hIgG1 (antibody, V domains shown)
VH: QVQLQQSGPELVKPGASVKISCKASGYAFSDSWMNWVKQRPGQGLEWIGRIYPGDGDTNYNGKFKGKATLTADKSSNTAYMQLSSLTSVDSAVYFCARSWNGSPWFPYWGQGTLVTVSA
VL: DVLMTQTPLSLPVSLGDQASISCRSSQTIAHRNGNTYLEWYLQKPGQSPKLLLYKVSNRFSGVPDRFSGSGSGTDFTLKISRVEAEDLGVYYCFQGSHVTWTFGGGTKLEIK
B5: xi62A8D8 hIgG1 (antibody, V domains shown)
VH: EVKLVESGGGLVKPGGSLKLSCAASGFTFSSYGMSWVRQTPEKRLEWVATISGGGSYTYYPDSVKGRFTISRDNAKNNLYLQMSSLRSEDTALYYCARRDLRSAMDYWGQGTSVTVSS
VL: DIVMTQSQKFMSTSVGDRVSVTCKASQNVDINVAWYQQKPGQSPKALIYSASYRYSGVPDRFTGSGSGTDFTLTISNVQSEDLAEFFCQQYNNYPLTFGGGTKLEIK
B6: xi54A4F7 hIgG1 (antibody, V domains shown)
VH: B5 VH with Y107H
VL: B5 VL with K24R, A46S, F86Y, N93S, K107R
B7: xi74B5E4 hIgG1 (antibody, V domains shown)
VH: B5 VH with K19R, S31T
VL: B5 VL with F86Y, N93T
B8: 62F6A8 (antibody, V domains shown)
VH: B1 VH
VL: B1 VL
notes: purified mouse antibody
B9: 61H8C1 (antibody, V domains shown)
VH: B1 VH with I4L, D31S, M34T, G56D, A59S, R65K, A87T, F95Y, F108Y
VL: B1 VL with A56T
notes: purified mouse antibody
B10: 24G6D5 (antibody, V domains shown)
VH: B2 VH
VL: B2 VL
notes: purified mouse antibody
B11: 34A5G9 (antibody, V domains shown)
VH: B3 VH
VL: B3 VL
notes: purified mouse antibody
B12: 51G2B3 (antibody, V domains shown)
VH: B4 VH
VL: B4 VL
notes: purified mouse antibody
B13: 73A11E2 (antibody, V domains shown)
VH: B5 VH with K76R, S84N
VL: B5 VL with N93S
notes: purified mouse antibody
B14: 74B5E4 (antibody, V domains shown)
VH: B5 VH with K19R, S31T
VL: B5 VL with F86Y, N93T
notes: purified mouse antibody
B15: 57F8H3F1 (antibody, V domains shown)
VH: QVQLQQPGAELVRPGASVKLSCKASGYTFTNYWMNWIKQRPEQGLEWIGRIDPYETETHYNQKFRDRAILTVDKSSSTAFMQLSGLTSEDSAVYYCARGYGHYYGVDYWGQGTSVTVSS
VL: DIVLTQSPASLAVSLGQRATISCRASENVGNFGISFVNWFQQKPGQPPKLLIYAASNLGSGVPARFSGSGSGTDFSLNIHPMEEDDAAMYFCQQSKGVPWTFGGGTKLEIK
notes: purified mouse antibody
B16: 72B4H4 (antibody, V domains shown)
VH: QVQLQQPGAERVRPGASVKLSCKASGYTFTNYWMNWVKQRPEQGLEWIGRIDPYAGETHYNQKFKDKAILTVDKSSSTAYMQLRSLTSEDSAVYYCARGYGDSYGMDHWGQGTSVTVSS
VL: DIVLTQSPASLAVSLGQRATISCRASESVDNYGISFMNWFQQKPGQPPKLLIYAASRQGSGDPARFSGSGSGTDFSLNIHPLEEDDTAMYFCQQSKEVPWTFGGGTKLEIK
notes: purified mouse antibody

Molecular target: T1, human interleukin 13 receptor subunit …
Assay: cell-based or functional assay

Row | internalization EC50 (pHAb dye), A375 cells [nM] | internalization EC50 (pHAb dye), CHO-K1/H_IL-13RA2 cells [nM] | internalization EC50 (pHAb dye), HEK-293/H IL-13RA2 cells [nM] | internalization Top (MFI), A375 cells [MFI] | internalization Top (MFI), CHO-K1/H_IL-13RA2 cells [MFI] | internalization Top (MFI), HEK-293/H IL-13RA2 cells [MFI] | Binder
1 | ~0.447 | 1.17 | 1.73 | 4530 | 15900 | 22300 | B1
2 | 0.61 | 0.86 | 2.76 | 4110 | 12700 | 23700 | B2
3 | 3.63 | 1.38 | 1.78 | 8610 | 13900 | 25700 | B3
4 | 1.32 | 1.84 | 3.84 | 6380 | 17100 | 28900 | B4
5 | 1 | 1.58 | 1.88 | 5550 | 17200 | 23300 | B5
6 | 0.66 | 1.42 | 1.65 | 5500 | 18000 | 22800 | B6
7 | ~0.437 | 0.91 | 1.31 | 5170 | 17700 | 21600 | B7

Molecular target: T1, human interleukin 13 receptor subunit …
Assay: FACS on A375 cells
Description: (§1) A375 cells that endogenously expressed IL-13RA2, were harvested from flasks. 100 μl of 1×10⁶ cells/ml of cells were incubated with primary chimeric antibodies in 3-fold serial dilutions starting from 300 nM to 0.002 nM for 30 minutes on ice. After being washed with 200 μl of FACS buffer twice, cells were incubated with secondary antibody for 30 minutes on ice. Cells were washed with 200 μl of FACS buffer twice and analyzed by FACS.
As shown in FIG. 3 and Table 4, the chimeric antibodies bound to human IL-13RA2 at different EC50.

Row | EC50 [nM] | Top (MFI) | Binder
8 | 0.48 | 15800 | B1
9 | 0.88 | 15200 | B2
10 | 0.26 | 16700 | B3
11 | 0.64 | 15500 | B4
12 | 0.82 | 17300 | B5
13 | 0.63 | 18000 | B6
14 | 0.7 | 18100 | B7

Molecular target: T1, human interleukin 13 receptor subunit …
Assay: FACS on A375 cells
Remark: another data set of the same source
Description: as §1, with “IL-13RA2” for “IL-13RA2,”, “primary” for “primary chimeric”, “4-fold” for “3-fold”, “100” for “300”, “0.006” for “0.002”

Row | EC50 [nM] | Top (MFI) | Binder
15 | 0.68 | 217000 | B8
16 | 0.41 | 203000 | B9
17 | 0.68 | 226000 | B10
18 | 0.67 | 248000 | B11
19 | 0.87 | 243000 | B12
20 | 0.71 | 223000 | B13
21 | 0.6 | 268000 | B14
22 | 0.7 | 246000 | B15
23 | 0.76 | 262000 | B16

Source: patent US20250163164A1 (LANOVA MEDICINES DEVELOPMENT, published 2025)
